Three molecules from patent publication US7319140 (SCHERING, dated 2008) can be followed below.

The target of one assay is T1, Ly49D (mouse, UniProt Q60651 1-263).
T1 construct: whole, on cells; Expressed in Ba/F3 transfectants; also called mouse Ly49D
T1 sequence (looked up): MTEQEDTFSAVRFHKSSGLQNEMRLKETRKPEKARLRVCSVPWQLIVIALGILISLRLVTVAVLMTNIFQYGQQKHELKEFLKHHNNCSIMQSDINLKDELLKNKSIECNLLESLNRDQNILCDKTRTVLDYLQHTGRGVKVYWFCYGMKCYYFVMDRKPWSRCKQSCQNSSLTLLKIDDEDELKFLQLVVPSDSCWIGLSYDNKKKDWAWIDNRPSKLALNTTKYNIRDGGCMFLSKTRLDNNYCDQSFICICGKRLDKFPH
Nature of the assay: co-immunoprecipitation from transfected Ba/F3 cells. An excerpt: (§1) Transcripts of Ly49D and Ly49H are present in IL-2 activated NK cells (20). Ly49D is expressed on ~50% of NK cells (Mason, et al. (1996) *J. Exp. Med.* 184:2119), and is associated with a tyrosine phosphoprotein of 16 kD (Mason, et al. (1998) *J. Immunol.* 160:4148-4152). Murine NK cells, like human NK cells, transcribe mRNA for DAP12, a molecule which associates with the activating KIR2DS and mediates cellular activation (Lanier, et al. (1998) *Nature* 391:703). To examine if Ly49D or Ly49H associated with DAP12, Ba/F3 cells were stably transfected with an epitope-tagged mouse DAP12 (DAP12-FLAG). […] Ba/F3 or the Ba/F3-DAP12 transfectants were then infected with retroviruses encoding either Ly49D, a myc epitope tagged Ly49H (Ly49H-myc), or as a control Ly49A. Neither Ly49D nor Ly49H-myc was expressed at appreciable levels on the cell surface when transfected into Ba/F3 cells.
(§2) To confirm that Ly49D and Ly49H non-covalently associate with DAP12 at the cell surface, Ly49D/DAP12-FLAG or Ly49H-myc/DAP12-FLAG Ba/F3 transfectants were surface iodinated, lysed with digitonin, and immunoprecipitates were analyzed by SDS-PAGE.

Assay [1] concerns the target T2, myc epitope tagged Ly49H (Ly49H-myc) (mouse, UniProt Q60682 1-266).
T2 construct: whole, on cells; Expressed in Ba/F3 transfectants; also called mouse Ly49H
T2 sequence (looked up): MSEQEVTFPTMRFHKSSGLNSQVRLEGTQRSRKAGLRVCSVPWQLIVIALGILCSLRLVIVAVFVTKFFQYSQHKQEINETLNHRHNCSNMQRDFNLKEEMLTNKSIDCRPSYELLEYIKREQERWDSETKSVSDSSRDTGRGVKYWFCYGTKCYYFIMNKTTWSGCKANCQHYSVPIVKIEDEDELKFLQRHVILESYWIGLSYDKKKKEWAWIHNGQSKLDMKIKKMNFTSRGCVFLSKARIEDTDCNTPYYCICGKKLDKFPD
The assay is described as above.
From the text: as §1, §2

Assay [2] deals with T3, CD94/NKG2C receptor (disulfide-linked heterodimer) (human, UniProt Q13241 1-179; P26717 1-231).
T3 construct: whole, on cells; Expressed in Ba/F3 transfectants; also called CD94/NKG2C heterodimer
Nature of the assay: summary of example XII.

A further assay addresses T4, KIR2DS2 (human, UniProt P43631 22-304).
T4 construct: whole, on cells; Expressed in Ba/F3 or Jurkat transfectants; also called NKAT5
Briefly: co-immunoprecipitation from 125I-labelled Ba/F3 transfectants. The text has this:
Unlike CD94/NKG2C, KIR2DS2 molecules are expressed on the cell surface in the absence of DAP12, although they are unable to induce cellular activation (Bléry, et al. (1997) *J. Biol. Chem.* 272:8989-8996; Lanier, et al. (1998) *Nature* 391:703-707). KIR2DS2+ Ba/F3 cells were infected with retroviruses encoding either wild-type FLAG-DAP12 or the D-A transmembrane FLAG-DAP12 mutant receptor. Both KIR2DS2 and the mutant DAP12 protein were expressed on the cell surface. […] Like NKG2A and NKG2C, the KIR2DS2 protein has a counterpart, KIR2DL2, that lacks a charged amino acid in the transmembrane and contains an ITIM in its cytoplasmic domain. It has been previously reported that KIR2DL2 is unable to associate with DAP12 (Lanier, et al. (1998) *Nature* 391:703-707). Collectively, these findings indicate that the association of DAP12 with either KIR2DS2 or CD94/NKG2C complexes likely results from interactions involving the transmembrane domains of these proteins.

T4 sequence (P43631 22-304): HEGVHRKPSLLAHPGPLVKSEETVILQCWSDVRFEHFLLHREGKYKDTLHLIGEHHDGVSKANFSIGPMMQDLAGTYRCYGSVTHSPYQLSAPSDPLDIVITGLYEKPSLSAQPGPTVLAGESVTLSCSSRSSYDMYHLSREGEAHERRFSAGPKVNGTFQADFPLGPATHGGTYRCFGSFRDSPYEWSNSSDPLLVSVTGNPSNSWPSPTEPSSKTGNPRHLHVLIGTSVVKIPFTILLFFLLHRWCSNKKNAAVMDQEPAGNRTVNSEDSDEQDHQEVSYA
T3 sequence (Q13241 whole entry, chain 1 of 2): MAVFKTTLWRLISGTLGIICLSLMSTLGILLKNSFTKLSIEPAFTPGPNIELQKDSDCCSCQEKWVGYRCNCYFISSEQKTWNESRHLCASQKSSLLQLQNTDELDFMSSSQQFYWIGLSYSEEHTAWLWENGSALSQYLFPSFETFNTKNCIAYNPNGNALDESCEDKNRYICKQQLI
T3 sequence (P26717 whole entry, chain 2 of 2): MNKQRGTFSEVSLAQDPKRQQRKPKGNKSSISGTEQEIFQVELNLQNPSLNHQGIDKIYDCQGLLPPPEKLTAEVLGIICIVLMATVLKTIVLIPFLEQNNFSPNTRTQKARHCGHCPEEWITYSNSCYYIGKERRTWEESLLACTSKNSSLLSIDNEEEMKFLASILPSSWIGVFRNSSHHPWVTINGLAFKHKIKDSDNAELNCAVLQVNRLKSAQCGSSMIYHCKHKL

B1: epitope-tagged mouse DAP12 (DAP12-FLAG) (receptor, not shown: small tags and cut ends)
chain: AQSDTFPRCDCSSVSPGVLAGIVLGDLVLTLLIALAVYSLGRLVSRGQGTAEGTRKQHIAETESPYQELQGQRPEVYSDLNTQRQYYR
notes: Limits of the construct are not described; also called mouse DAP12-FLAG; FLAG-tagged form of mouse DAP12
In the case of B1, the binding result (with Ly49D; in assay [1]) was “binds” each time.

B2: DAP12-FLAG (human DAP12 with a FLAG epitope tag at the N terminus) (receptor, not shown: small tags and cut ends)
chain: QAQSDCSCSTVSPGVLAGIVMGDLVLTVLIALAVYFLGRLVPRGRGAAEAATRKQRITETESPYQELQGQRSDVYSDLNTQRPYYK
notes: Made as CD8 leader, FLAG, then DAP12 without its own leader; Runs as a disulfide-bonded homodimer on the cell surface; also called FLAG-DAP12
Turning to B2, in assay [2], the binding result was “binds”.

B3: D-A transmembrane FLAG-DAP12 mutant receptor (receptor, not shown: small tags and cut ends)
chain: QAQSDCSCSTVSPGVLAGIVMGALVLTVLIALAVYFLGRLVPRGRGAAEAATRKQRITETESPYQELQGQRSDVYSDLNTQRPYYK
notes: also called mutant DAP12 protein
As to B3, in the assay with KIR2DS2, the binding result is given as “no binding”.
